In patent US20230192896A1 (BIOVERATIV THERAPEUTICS, published 2023):

target: T1, non-activatable Factor X (FXn) (Homo sapiens (Human), UniProt P00742 41-488, single biotin on the C-terminal BioTag); test: BLI; class meaning: paragraph 285
T1 construct: also called BIIB-FX-015

binding result	Binder
binds	BIIB-12-913 (antibody, V domains shown, IgG) VH: QVQLVQSGAEVKKPGASVKVSCKASGYTFTSYGISWVRQAPGQGLEWMGWISAYNGNTNYAQKLQGRVTMTTDTSTSTAYMELRSLRSDDTAVYYCARGGVSRFWGQGTLVTVSS VL: EIVMTQSPATLSVSPGERATLSCRASQSVSSNLAWYQQKPGQAPRLLIYGASTRATGIPARFSGSGSGTEFTLTISSLQSEDFAVYYCQQYAPYPPLTFGGGTKVEIK
binds	BIIB-12-910 (antibody, V domains shown, IgG) VH: QVQLQESGPGLVKPSQTLSLTCTVSGGSISSGGYYWSWIRQHPGKGLEWIGSIYYSGSTYYNPSLKSRVTISVDTSKNQFSLKLSSVTAADTAVYYCARGPLQRQVRYFDLWGRGTLVTVSS VL: DIQMTQSPSSLSASVGDRVTITCRASQSISSYLNWYQQKPGKAPKLLIYAASSLQSGVPSRFSGSGSGTDFTLTISSLQPEDFATYYCQQLSHTPFTFGGGTKVEIK
binds	BIIB-12-921 (antibody, V domains shown, IgG) VH: QVQLVESGGGVVQPGRSLRLSCAASGFTFSSYGMHWVRQAPGKGLEWVAVISYDGSNKYYADSVKGRFTISRDNSKNTLYLQMNSLRAEDTAVYYCAKVGDRGTRAFDPWGQGTLVTVSS VL: DIQMTQSPSSVSASVGDRVTITCRASQGISRWLAWYQQKPGKAPKLLIYAASSLQSGVPSRFSGSGSGTDFTLTISSLQPEDFATYYCQQGNVFPLTFGGGTKVEIK
binds	BIIB-12-918 (antibody, V domains shown, IgG) VH: QVQLVESGGGVVQPGRSLRLSCAASGFTFSSYGMHWVRQAPGKGLEWVAVISYDGSNKYYADSVKGRFTISRDNSKNTLYLQMNSLRAEDTAVYYCAKSLGGRSFDIWGQGTMVTVSS VL: DIQMTQSPSSLSASVGDRVTITCRASQSISRYLNWYQQKPGKAPKLLIYAASSLQSGVPSRFSGSGSGTDFTLTISSLQPEDFATYYCQQIFSLPITFGGGTKVEIK
binds	BIIB-12-916 (antibody, V domains shown, IgG) VH: QVQLVQSGAEVKKPGASVKVSCKASGYTFTSYYMHWVRQAPGQGLEWMGIINPSGGSTSYAQKFQGRVTMTRDTSTSTVYMELSSLRSEDTAVYYCARGGRQKATRRVDVWGQGTVVTVSS VL: DIQMTQSPSSLSASVGDRVTITCRASQSISSYLNWYQQKPGKAPKLLIYAASSLQSGVPSRFSGSGSGTDFTLTISSLQPEDFATYYCQQLAITPFTFGGGTKVEIK
binds	BIIB-12-911 (antibody, V domains shown, IgG) VH: QVQLVESGGGVVQPGRSLRLSCAASGFTFSSYGMHWVRQAPGKGLEWVAVISYDGSNKYYADSVKGRFTISRDNSKNTLYLQMNSLRAEDTAVYYCARGRGMDVWGQGTTVTVSS VL: EIVLTQSPATLSLSPGERATLSCRASQSVSSYLAWYQQKPGQAPRLLIYDASNRATGIPARFSGSGSGTDFTLTISSLEPEDFAVYYCQQRSNFPITFGGGTKVEIK
binds	BIIB-12-922 (antibody, V domains shown, IgG) VH: QVQLVQSGAEVKKPGASVKVSCKASGYTFTSYYMHWVRQAPGQGLEWMGIINPSGGSTSYAQKFQGRVTMTRDTSTSTVYMELSSLRSEDTAVYYCARRGRIAGMWGQGTTVTVSS VL: not shown
binds	BIIB-12-907 (antibody, V domains shown, IgG) VH: QVQLQESGPGLVKPSETLSLTCAVSGYSISSGYYWAWIRQPPGKGLEWIGSIYHSGSTYYNPSLKSRVTISVDTSKNQFSLKLSSVTAADTAVYYCARESGMSGAAYWGQGTLVTVSS VL: not shown
binds	BIIB-12-914 (antibody, V domains shown, IgG; also called BIB-12-914) VH: QVQLVQSGAEVKKPGASVKVSCKASGYTFTSYYMHWVRQAPGQGLEWMGIINPSGGSTSYAQKFQGRVTMTRDTSTSTVYMELSSLRSEDTAVYYCARAPRYRGTMDVWGQGTTVTVSS VL: not shown
binds	BIIB-12-919 (antibody, V domains shown, IgG) VH: QVQLVQSGAEVKKPGASVKVSCKASGYTFTSYYMHWVRQAPGQGLEWMGVINPSGGSTSYAQKFQGRVTMTRDTSTSTVYMELSSLRSEDTAVYYCARGANIAVGRRYADYWGQGTLVTVSS VL: DIQMTQSPSTLSASVGDRVTITCRASQSISSWLAWYQQKPGKAPKLLIYKASSLESGVPSRFSGSGSGTEFTLTISSLQPDDFATYYCQQVSSYPTFGGGTKVEIK
binds	BIIB-12-923 (antibody, V domains shown, IgG) VH: QVQLVQSGAEVKKPGASVKVSCKASGYTFTSYYMHWVRQAPGQGLEWMGIINPSGGSTSYAQKFQGRVTMTRDTSTSTVYMELSSLRSEDTAVYYCARGAGYLQRAFDIWGQGTMVTVSS VL: DIQMTQSPSTLSASVGDRVTITCRASQSISSWLAWYQQKPGKAPKLLIYKASSLESGVPSRFSGSGSGTEFTLTISSLQPDDFATYYCQQFKSLSFTFGGGTKVEIK
binds	BIIB-12-920 (antibody, V domains shown, IgG) VH: QVQLVQSGAEVKKPGASVKVSCKASGYTFTSYGISWVRQAPGQGLEWMGWISPYNGNTNYAQKLQGRVTMTTDTSTSTAYMELRSLRSDDTAVYYCARGSGHTTMFWGQGTLVTVSS VL: EIVMTQSPATLSVSPGERATLSCRASQSVSSNLAWYQQKPGQAPRLLIYSASTRATGIPARFSGSGSGTEFTLTISSLQSEDFAVYYCQQANAYPPTFGGGTKVEI
binds	BIIB-12-915 (antibody, V domains shown, IgG) VH: QLQLQESGPGLVKPSETLSLTCTVSGGSISSSRYYWGWIRQPPGKGLEWIGSIYYSGSTYYNPSLKSRVTISVDTSKNQFSLKLSSVTAADTAVYYCARVGGGYANPWGQGTLVTVSS VL: not shown
binds	BIIB-12-928 (antibody, V domains shown, IgG) VH: QVQLVEFGVGVVQPGRSLRLSCAASGFTFSSYGMHWVRQAPGKGLEWVAVISYDGSNKYYADSVKGRFTISRDNSKNTLYLQMNSLRAEDTAVYYCAKGGTYLDTWGQGTLVTVSS VL: EIVLTQSPGTLSLSPGERATLSCRASQSVRSSYLAWYQQKPGQAPRLLIYGASSRATGIPDRFSGSGSGTDFTLTISRLEPEDFAVYYCQQYVRFPLTFGGGTKVEIK
binds	BIIB-12-1314 (antibody, V domains shown, IgG) VH: QVQLVESGGGVVQPGRSLRLSCAASGFTFSSYGMHWVRQAPGKGLEWVAVISYDGSNKYYADSVKGRFTISRDNSKNTLYLQMNSLRAEDTAVYYCAKGTRWAGNWGQGTLVTVSS VL: DIQMTQSPSSVSASVGDRVTITCRASQGISSWLAWYQQKPGKAPKLLIYAASSLQSGVPSRFSGSGSGTDFTLTISSLQPEDFATYYCQQANFFPITFGGGTKVEIK
binds	BIIB-12-906 (antibody, V domains shown, IgG) VH: QVQLVESGGGVVQPGRSLRLSCAASGFTFSSYGMHWVRQAPGKGLEWVAVISYDGSNKYYADSVKGRFTISRDNSKNTLYLQMNSLRAEDTAVYYCAKSSRHFDYWGRGTLVTVSS VL: not shown
binds	BIIB-12-908 (antibody, V domains shown, IgG) VH: QVQLVESGGGVVQPGRSLRLSCAASGFTFSSYGMHWVRQAPGKGLEWVAVISYDGSNKYYADSVKGRFTISRDNSKNTLYLQMNSLRAEDTAVYYCAKGPRGMDVWGQGTTVTVSS VL: DIQLTQSPSSVSASVGDRVTITCRASQGISSWLAWYQQKPGKAPKLLIYGASSLQSGVPSRFSGSGSGTDFTLTISSLQPEDFATYYCQQGSSLPITFGGGTKVEIK
binds	BIIB-12-1311 (antibody, V domains shown, IgG) VH: QVQLVESGGGVVQPGRSLRLSCAASGFTFSSYGMHWVRQAPGKGLEWVAVISYDGSNKYYADSVKGRFTISRDNSKNTLYLQMNSLRAEDTAVYYCAKGRHYWAVWGQGTLVTVSS VL: EIVLTQSPATLSLSPGERATLSCRASQSVSSYLAWYQQKPGQAPRLLIYDASNRATGIPARFSGSGSGTDFTLTISSLEPEDFAVYYCQQASNLPPTFGGGTKVEIK
binds	BIIB-12-1300 (antibody, V domains shown, IgG) VH: QVQLVESGGGVVQPGRSLRLSCAASGFTFSSYGMHWVRQAPGKGLEWVAVISYDGSNKYYADSVKGRFTISRDNSKNTLYLQMNSLRAEDTAVYYCARGSKYLHAWGQGTLVTVSS VL: DIQMTQSPSSVSASVGDRVTITCRASQGISSWLAWYQQKPGKAPKLLIYAASSLQSGVPSRFSGSGSGTDFTLTISSLQPEDFATYYCQQASSFPPTFGGGTKVEIK
binds	BIIB-12-926 (antibody, V domains shown, IgG) VH: QVQLVQSGAEVKKPGASVKVSCKASGYTFTSYYMHWVRQAPGQGLEWMGIINPSGGSTSYAQKFQGRVTMTRDTSTSTVYMELSSLRSEDTAVYYCARDGRMARGASPDYWGQGTLVTVSS VL: EIVMTQSPATLSVSPGERATLSCRASQSVSSNLAWYQQKPGQAPRLLIYGASTRATGIPARFSGSGSGTEFTLTISSLQSEDFAVYYCQQHSFWPPTFGGGTKVEIK
binds	BIIB-12-927 (antibody, V domains shown, IgG) VH: QVQLVQSGAEVKKPGASVKVSCKASGYTFTSYYMSWVRQAPGQGLEWMGIINPSGGSTSYAQKFQGRVTMTRDTSTSTVYMELSSLRSEDTAVYYCARDSGRKRYYYMDVWGKGTTVTVSS VL: EIVMTQSPATLSVSPGERATLSCRASQSVSSNLAWYQQKPGQAPRLLIYGASTRATGIPARFSGSGSGTEFTLTISSLQSEDFAVYYCQQFNLWPFTFGGGTKVEIK
binds	BIIB-12-909 (antibody, V domains shown, IgG) VH: QVQLVESGGGVVQPGRSLRLSCAASGFTFSSYGMHWVRQAPGKGLEWVAVISYDGSNKYYADSVKGRFTISRDNSKNTLYLQMNSLRAEDTAVYYCAKGKHRRRSFDIWGQGTMVTVSS VL: not shown
binds	BIIB-12-924 (antibody, V domains shown, IgG) VH: QVQLVESGGGVVQPGRSLRLSCAASGFTFSSYGMHWVRQAPGKGLEWVAVISYDGSNKYYADSVKGRFTISRDNSKNTLYLQMNSLRAEDTAVYYCAKGKSSERGLNPWGQGTLVTVSS VL: DIQMTQSPSSVSASVGDRVTITCRASQGISSWLAWYQQKPGKAPKLLIYAASSLQSGVPSRFSGSGSGTDFTLTISSLQPEDFATYYCQQGNSFPLTFGGGTKVEIK
binds	BIIB-12-1309 (antibody, V domains shown, IgG) VH: QVQLVESGGGVVQPGRSLRLSCAASGFTFSSYGMHWVRQAPGKGLEWVAVISYDGSNKYYADSVKGRFTISRDNSKNTLYLQMNSLRAEDTAVYYCARGRYTSRYFQHWGQGTLVTVSS VL: DIQMTQSPSSVSASVGDRVTITCRASQGISSWLAWYQQKPGKAPKLLIYAASSLQSGVPSRFSGSGSGTDFTLTISSLQPEDFATYYCQQANSLPITFGGGTKVEIK
